Experimental data as given in article PMC9849103 (Nature Communications, 2023).
Substitutions are numbered along the chain they refer to.

B1: B2014 (antibody, V domains shown)
VH: QVQLVQSGAELKRPGASVKVSCKASGYTFSDYHMNWVRQAPGQGLEWMGIINPSGGGASYPQKFQGRVTMTRDTSTSTVFMQLNSLTYEDTAVYYCARGTPPSRGWYGGFDNWGQGTLVTVSS
VL: QSVLTQPPSVSGAPGQRITISCTGSTSNIGAGYDVQWYQQLPGTAPKLLIFDNNNRPSGVPDRFSGSKSGTSASLAITGLQAEDEADYYCQSFDSTLSGSTFVFGPGTKVTVL
notes: source: 293-6E cells, transfected, purified (Protein G Sepharose)
B2: B2006 (antibody, V domains shown)
VH: EVQLVQSGAEVKKPGESLKISCKGFGSSFTNYWIGWVRQMPGKGLEWMGSVYAGDSDTRYSPSFQGQVTVSADKSITTAYLQWTSLKASDTAMYFCARASQGNYFDFWGQGTLVTVSS
VL: DIQMTQSPSTLSASVGDRVTITCRASQSISRWLAWYQQKPGKAPKLLIYDASILESGVPSRFSGSGSGTDFTLTISSLQPDDYATYYCQQFYSNLYTFGQGTKLEIK
notes: as for B1
B3: B2058 (antibody, V domains shown)
VH: EVQLVESGGGLIQPGGSLRLSCAASGLTVSSNYMSWVRQAPGKGLEWVSVIYPGGSTFYADSVKGRFTISRDNSKNTLYLQLNSLRADDTAVYFCARGDGYTDYYYGLDVWGQGTTVTVSS
VL: DIQLTQSPSSLSASVGDRVTITCRASQSISSYLNWYQQKPGKAPKLLIYAASSLQSGVPSRFSGSGSGTDFTLTISSLQPEDFATYYCQQRGFGQGTKVEIK
notes: as for B1
B4: B1032 (antibody, V domains shown)
VH: EVQLVESGGGLVQPGRSLRLSCEASGFTFEDFAMHWVRQAPGKGLEWVSGVSWNSGTIGYGDSVKGRFIIIRDNAKNSVYLQMNSLRPEDTAFYYCVKDMATYYKDISGTYGMDVWGQGTTVTVSS
VL: SYELTQTPSVSVAPGQTARITCVGNNIGSESVHWYQQKSGRAPVLVVYDDSDRPSGIPERFSGSTSGTTATLIINRVEAGDEAGYYCQVWDASSDHVVFGGGTKLTVL
notes: as for B1
B5: B2064 (antibody, V domains shown)
VH: QVQLVQSGAEVKKPGSSVNVSCKASGGTLNIYTFSWVRQAPGQGLEWVGTIVPLVGKANYPHKFQGRVTITADKSTSTVNMELSSLRSEDTAVYYCASEVLDNLRDGYNFWGQGTLVTVSS
VL: DIQMTQSPSSLSASVGDRVTITCRASQSVSSYLNWYQQKPGKAPKLLIYAVSSLQSGVPSRFSGSGSGTDFTLTISSLQPEDFATYYCQQTYNTLTFGGGTKVEIK
notes: as for B1
B6: B1002 (antibody, V domains shown)
VH: QVQLVQSGAEVKKPGSSVKVTCRASGGTFSNLAISWVRQAPGQGLEWMGSIIPMFTISNYAQKLKGRVTITADKSTSTAYMELSSLRSGDTAVYFCASLGSNITVVRGAPITDHHFHYWGQGTLVTVSS
VL: QSALTQPASVSGSPGQSVTISCTGTSSDVGTYNLVSWYQQHPGKAPKLMIYEVSKRPSGVSNRFSGSKSGNTASLTISGLQAEDEADYYCCSYAASSTTHWVFGGGTKLAV
notes: as for B1
B7: B1026 (antibody, V domains shown)
VH: QMQLVQSGPEIKKPGTSVKVSCKASGFTFSNSAVQWVRQARGQRLEWIGWIVVGSGDPNYAQKFQERVTLTRDMSTSTAYMELSSLRSEDTAVYYCATNHCSRTICSDGFDIWGQGTVVTVSS
VL: EIVLTQSPVSLSLSPGERATLSCRASQTVRSSYFVWYQQKLGQAPRLLIYSASSRAAGIPDRFSGSGSGTDFTLTISRLEPEDFAVYYCQQYGSSPWTFGQGTKVEIK
notes: as for B1
B8: C3102 (antibody, V domains shown)
VH: QVQLVQSGAEVKKPGSSVKVSCKASGGTFRRYAISWVRQAPGQGLEWMGGIIPIAGAADYAQKFQARVTITADESTSTAYLELSSLRSEDTAVYYCAREISYCSGAPCYAGYYDYGMDVWGQGTTVTVSS
VL: QSVLTQPPSASGTPGQRVTISCSGNSSNIGSNSVNWYQQLPGTAPKLLIKSTNQRPSGVPDRFSGSKSGTSASLAISGLQSEDEADYYCAAWEDVLNAVVFGGGTMLTV
notes: as for B1
B9: B1037 (antibody, V domains shown)
VH: QVQLVQSGAEVKKPGSSVKVSCKASGDTFISYAITWVRQAPGQGLEWMGRIIPILGVADYAPKFQGRVTITADKSTSTAYMELSSLRSEDTAVFYCASWRGREYNGYDWTGPTRGFDSWGQGTLVTVSS
VL: not shown
notes: as for B1
B10: C3055 (antibody, V domains shown)
VH: QVQLVQSGAEVKKPGSSVNVSCRASGGTFSSKTISWVRQAPGQGLEWMGKIFPILGVANYAQKFQGRVTITADRSTNTAYMELNSLRSEDTAIYYCATEEGYSSSRSLPAEYFRQWGQGTLVTVSS
VL: QSVLTQPPSVSGAPGQRVTISCTGSNSNIGAGYDVHWYQQLPGTAPKLLIYANTNRPSGVPDRFSGSKSGTSASLAITGLQAEDEADYYCQSYDSGLSGSLFGGGTKLTVL
notes: as for B1
B11: C3108 (antibody, V domains shown)
VH: QVQLQESGPGLVKPSQTLSLTCTVSGGSISSGGYYWNWIRQSPVKGLEWIGYIYYSGGTYYNPSLRSRLTISLDTSNNQFSLRLNSVTAADTAIYYCARDQGAITFGTDAFEIWGQGTMVTVSS
VL: DIQMTQSPSSLSASVGDRVTITCQASQDISKYLNWYQQKPGKAPKLLIYGASTLKAGVPSRFSGSGSGTDFTFTISSLQPEDIATYYCQQYDSLPPTFGGGTKVEIK
notes: as for B1
B12: C3095 (antibody, V domains shown)
VH: EVQLVETGGGLIQPGGSLRLSCAASEFIVSANYMHWVRQAPGQGLEWVSVIYAGGSTFYADSVKGRFTISRDNSKNSLYLQMNSLRAEDTAVYYCARGLGDYFDFWGQGTLVTVSS
VL: DIQMTQSPSTLSASVGDRVTITCRASQSFSDWLAWYQQKPGSAPKLLIYRASSLESGVPSRFSGSGSGTEFTLTISSLQPDDFATYYCQQYNTYPLTFGGGTKVEIK
notes: as for B1
B13: C1034 (antibody, V domains shown)
VH: QLQLQESGPGLVKPSETLSLTCTVSGGSVSSNNHYWGWIRQPPGKGLEWIGSISSSGSTHHNPSLRSRVTISVDTSKNHFSLKLNSVTATDTAVYYCARVDSSGWYTGDVFDVWGQGTMVTVSS
VL: DIQMTQSPSSLSASVGDRVTITCRASQTINNYLNWYQQKPGKPPKLLIYAAFSLHSGVPSRFSGSRSGTDFTLTISSLQPEDFATYYCQHSYSTMCSFGQGTKLEIK
notes: as for B1
B14: C2655 (antibody, V domains shown)
VH: QVQLVQSGAEVKKPGSSVKVSCKASGGTFNSYAISWVRQAPGQGLEWMGGIIHVLGTANYAQRFQGRVTITADESTSTVYMELSSLRSEDTAVYYCARVGAPLGRADSGYDFYYYGMDVWGQGTTVTVSS
VL: not shown
notes: as for B1
B15: C2488 (antibody, V domains shown)
VH: QVQLVESGGGVVQPGRSLRLSCAASGFTFSTHGMHWVRQAPGKGLEWMAVIYFDGSNKYYADSVKGRFAISRDNSKNTLFLQMNSLRADDTAVYHCATNSAGYGDSYETFDIWGQGTMVSVSS
VL: EIVMTQSPATLSVSPGERATLSCRASHSVGTNLAWYQQKPGQAPRLLIYGAFTRAAGISARFSGSGSGTEFTLTISSLQSEDLAVYYCQQYENWPPYTFGQGTKLEIK
notes: as for B1
B16: B1030 (antibody, V domains shown)
VH: QVQLVQSGAEVKKPGASVRVSCKASGYTFTSYYMHWVRQAPGQGLEWMGIINPSDGGASYAQKFQGRVTMTSDTSTSTVYMELSSLRSEDTAVYYCARALRHHSSGWYSALDFQHWGQGTLVTVSS
VL: not shown
notes: as for B1
B17: B1011 (antibody, V domains shown)
VH: QVQLVQSGAEVKKPGASVKVSCKASGYTFISYYTHWVRQAPGQGLEWMGIINPSDGYTSYAQKFQGRVTMTRDTSASTVYMELSSLRSEDTAVYYCARDSSIAARVVAWGQGTLVTVSS
VL: DIQMTQSPSSLSASVGDRVTITCQASQDIYNYLNWYQQKPGKAPKLLIFDAINLETGVPSRFSGSGSGTDFTFTISSLQPEDIATYYCQQHDNLPYSFGQGTKLEIK
notes: as for B1
B18: B1034 (antibody, V domains shown)
VH: B17 VH with A9S, Y27N, S31T, I50V, N52K, S59N, R87T, E89D, A108D
VL: B17 VL with F73L
notes: as for B1
B19: B1012 (antibody, V domains shown)
VH: B17 VH
VL: B17 VL with Y30G, I52S, T56A, G64A, T74A, T85A, N93D, K103T
notes: as for B1
B20: C2606 (antibody, V domains shown)
VH: QVQLVQSGAEVKKPGSSVKVSCKASGDTFRSYAISWVRQAPGQGLEWMGRIIPMLGITTYEQKYQGRLKIIADKSTSTAYMELSSLRSEDTAVYFCARDGVGATEPYYYDYWGQGTLVTVSS
VL: QSVLTQPASVSGSPGQSIIISCTGTSSDVGKYDFVSWYQQHPGKAPKLMIYDVSKRPSGVSDRFSGSKSGNTASLTISGLQAEDEADYHCASYTSDSSYLVFGGGTKLTVL
notes: as for B1

molecular target: WT RBD (SARS-CoV-2 Wuhan-Hu-1 spike receptor binding domain) (SARS-CoV-2 (Wuhan-Hu-1), UniProt P0DTC2); assay: BLI; details: both partners purified

Question: With B1 as the binder, how does the Kd read?
Answer: The Kd was 1.24 nM.

Question: B2 was tested. Which Kd did it give?
Answer: The Kd was 0.582 nM.

Question: With B3 as the binder, how does the Kd read?
Answer: Its Kd is 1.02 nM.

Question: B4 was tested. Which Kd did it give?
Answer: Its Kd is 0.52 nM.

Question: For B5, which Kd is on record?
Answer: Its Kd is 0.866 nM.

Question: B6 was tested. Which Kd did it give?
Answer: Its Kd is 0.732 nM.

Question: With B7 as the binder, how does the Kd read?
Answer: Its Kd is 12 nM.

Question: B8 was tested. Which Kd did it give?
Answer: Its Kd is 0.639 nM.

Question: With B9 as the binder, how does the Kd read?
Answer: Its Kd is 3.21 nM.

Question: How did the Kd turn out when B10 was run?
Answer: Its Kd is 0.592 nM.

Question: With B11 as the binder, how does the Kd read?
Answer: The Kd was 0.96 nM.

Question: How did the Kd turn out when B12 was run?
Answer: Its Kd is 0.00158 nM.

Question: Which Kd does the source give for B13 here?
Answer: Its Kd is 1.98 nM.

Question: Which Kd does the source give for B14 here?
Answer: Its Kd is 1.34 nM.

Question: B15 was tested. Which Kd did it give?
Answer: Its Kd is 8.95 nM.

Question: With B16 as the binder, how does the Kd read?
Answer: Its Kd is 5.06 nM.

Question: Which Kd does the source give for B17 here?
Answer: Its Kd is 0.893 nM.

Question: With B18 as the binder, how does the Kd read?
Answer: The Kd was 0.734 nM.

Question: B19 was tested. Which Kd did it give?
Answer: The Kd was 0.572 nM.

Question: How did the Kd turn out when B20 was run?
Answer: Its Kd is 0.743 nM.
